Laboratory results published in PMC6650354.
Like-named read-outs stand apart in the source and are kept apart here.

What was measured:
[1] = target: immunoglobulin light chain κI O18/O8 variable domain (Homo sapiens) (UniProt P01594); details: cited from earlier work
[2] = target: AL-12 R65S restorative mutant light chain variable domain protein (human) (UniProt P01594); assay: HPLC sedimentation assay
[3] = target: κI O18/O8 germline (control) light chain variable domain protein (human) (UniProt P01594); assay: HPLC sedimentation assay
[4] = target: κI O18/O8 germline (control) light chain variable domain protein (human) (UniProt P01594); assay: HPLC sedimentation assay; remark: listed apart in the source
[5] = target: AL-09 H87Y restorative mutant light chain variable domain protein (human) (UniProt P01594); assay: HPLC sedimentation assay
[6] = target: AL-09 H87Y restorative mutant light chain variable domain protein (human) (UniProt P01594); assay: HPLC sedimentation assay; remark: listed apart in the source

immunoglobulin light chain κI O18/O8 variable domain (from UniProt P01594)
Kd [1]: 217 µM

AL-12 R65S restorative mutant light chain variable domain protein (from UniProt P01594 23-111) (domain or fragment)
critical concentration (Cr) of fibril growth [2]: 3.4 µM

κI O18/O8 germline (control) light chain variable domain protein (from UniProt P01594 23-117) (domain or fragment)
critical concentration (Cr) of fibril growth [3]: 1.2 µM | critical concentration (Cr) of fibril growth [4]: 3.2 µM

AL-09 H87Y restorative mutant light chain variable domain protein (from UniProt P01594 23-117) (domain or fragment)
critical concentration (Cr) of fibril growth [5]: 2.4 µM | critical concentration (Cr) of fibril growth [6]: 2.8 µM
